# Experimental data published in patent US20240027467A1 (VIB VZW, published 2024).
# Changes are numbered by the printed parent chain. Names may count otherwise. Where two headings read alike, the source gives them in different places.
# T1: SMT3 (YDR510W), ubiquitin-like protein SMT3 (yeast)
# T1 construct: also called yeast SUMO protein
# T1 chain: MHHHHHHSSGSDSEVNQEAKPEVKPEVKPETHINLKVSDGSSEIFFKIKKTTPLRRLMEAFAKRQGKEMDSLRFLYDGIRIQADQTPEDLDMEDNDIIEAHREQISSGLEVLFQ
# B1: CA10502 FIXa-specific Nb (Trapper2; C-term. 6xHis+EPEA) (VHH)
# VHH: QVQLQESGGGLVQAGGSLRLSCAASGRTSRVYGVGWFRQAPGKERELVASISTSGSVTNVADSVKGRFTISRDNAKTTVYLQMNSLKPEDTALYYCAADPHGRPYGWGQGTQVTVSS
# B2: CA16239 GST Nanobody stripper (including C-terminal 6xHis+EPEA tag) (VHH)
# VHH: QVQLVESGGGLVQAGGSLRLSCAASERTFSTYNMAWFRQAPGKEREFVAVISWNGGTTNSADSVKGRFTISRDNAKNTVYLQMNSLKPEDTAVYYCAARRVPYLSGTRYYTGEVDYDTWGQGTQVTVSS
# modifications: biotinylated for BLI
# B3: CA16240 GST Nanobody trapper (Y109A) (including C-terminal 6xHis+EPEA tag) (VHH)
# VHH: B2 VHH with Y109A
# modifications: biotinylated for BLI
# notes: Y109A mutant of CA16239
# B4: CA15839 SMT3 Nanobody stripper (including C-terminal 6xHis+EPEA tag) (VHH)
# VHH: QVQLVESGGGSAQTGGSLTLSCTASGSIVSMNSMGWFRRAPWKGREWLGDIGRDGRTSYASSVVGRFHISRDEAKNTVYLQMTRLKPEDAAMYYCAAVPFGDDDVGEWEYWGQGTQVTVSS
# modifications: biotinylated for BLI
# B5: CA16687 SMT3 Nanobody trapper (D50A) (including C-terminal 6xHis+EPEA tag) (VHH)
# VHH: B4 VHH with D50A
# modifications: biotinylated for BLI
# B6: CA10309 FIXa-specific Nb (Stripper2; C-term. 6xHis+EPEA) (VHH)
# VHH: QVQLVESGGGLVQAGGSLRLSCATSGIGFSIYSMGWYRQAPGKERELVASIAGNEDKDYVESVKGRFTISRDYAKNTLYLEMSGLKFEDTAMYYCAAGLRRGVSLTPYYWGQGTQVTVSS
# B7: CA17302 mCherry Nanobody stripper (including C-terminal 6xHis+EPEA tag) (VHH)
# VHH: QVQLVESGGGLVQAGGSLRLSCVASGLPFSRYNMAWFRQAPGKEREFVADIDWSGDSTYDLDSVKGRFTISRDNAKNTVYLQMSSLLPEDTAVYYCAAHFKFILAQRIKWGDMDYWGKGTQVTVSS
# modifications: biotinylated for BLI
# notes: also called Nb CA17302
# B8: CA17341 mCherry Nanobody trapper (CA17302 mutant) (including C-terminal 6xHis+EPEA tag) (VHH)
# VHH: B7 VHH with I103A
# modifications: biotinylated for BLI
# notes: also called Nb CA17341
# B9: CA11138 FIXa-specific Nb (C-term. 6xHis+EPEA) (VHH)
# VHH: QVQLVESGGGLVQAGGSLRLSCAASERTASNYVMGWFRQAPGKEREFVAFISRTGGSTYYADSVKGRFTVSRDGAKNTVYLQMNTMKPEDTAVYYCAASLYIRNYYEGTNYAYWGQGTQVTVSS
# notes: also called trapper1
# B10: CA15818 GFP-NbF103A (C-term. 6xHis + EPEA) (VHH)
# VHH: QVQLVESGGGLVQAGGSLRLSCAASGRTFSTAAMGWFRQAPGKERDFVAGIYWTVGSTYYADSAKGRFTISRDNAKNTVYLQMDSLKPEDTAVYYCAARRRGATLAPTRANEYDYWGQGTQVTVSS
# modifications: biotinylated for BLI
# notes: F103A mutant of CA12760; also called Nb CA15818
# B11: CA15861 GFP-NbT54A/V55A/F103A (C-term. 6xHis + EPEA) (VHH)
# VHH: B10 VHH with T54A, V55A
# modifications: biotinylated for BLI
# notes: T54A/V55A/F103A mutant of CA12760; also called Nb CA15861
# B12: CA16047 second GFP Nanobody stripper (including C-terminal 6xHis+EPEA tag) (VHH)
# VHH: QVQLQESGGGLVQAGGSLRLSCAASGFTFDGYAIGWFRQAPGKEREGVSCISSSDGSTYYADSVKGRFTISSDNAKNTVYLQMNSLKPEDTAVYYCVAAWSPSTGCGSYYVQRPPGYDYWGQGTQVTVSS
# modifications: biotinylated for BLI
# notes: also called Nb CA16047
# B13: CA16695 second GFP Nanobody trapper (Y119F) (including C-terminal 6xHis+EPEA tag) (VHH)
# VHH: B12 VHH with Y119F
# modifications: biotinylated for BLI
# notes: Y119F mutant of CA16047; also called Nb CA16695
# B14: CA10304 FIXa-specific Nb (C-term. 6xHis+EPEA) (VHH)
# VHH: QVQLVESGGGLVQAGGSLKLSCAASERTFSGTVMGWFRQPPGKEREFVGDISWSGSITDYADSVKGRFTISRDNAKNTMYLQMDSLKPEDTAVYYCAARVGGYSYIMSRSPADFGSWGQGTQVTVSS
# notes: also called stripper1
# B15: CA14208 FIXa-specific MegaBody (Stripper2; C-term. 6xHis+EPEA) (other)
# chain: QVQLVESGGGLVYKEETQSGLNNYARVVEKGQYDSLEIPAQVAASWESGRDDAAVFGFIDKEQLDKYVANGGKRSDWTVKFAENRSQDGTLLGYSLLQESVDQASYMYSDNHYLAEMATILGKPEEAKRYRQLAQQLADYINTCMFDPTTQFYYDVRIEDKPLANGCAGKPIVERGKGPEGWSPLFNGAATQANADAVVKVMLDPKEFNTFVPLGTAALTNPAFGADIYWRGRVWVDQFWFGLKGMERYGYRDDALKLADTFFRHAKGLTADGPIQENYNPLTGAQQGAPNFSWSAAHLYMLYNDFFRKQASGGGSGGGGSGGGGSGNADNYKNVINRTGAPQYMKDYDYDDHQRFNPFFDLGAWHGHLLPDGPNTMGGFPGVALLTEEYINFMASNFDRLTVWQDGKKVDFTLEAYSIPGALVQKLTAKDVQVEMTLRFATPRTSLLETKITSNKPLDLVWDGELLEKLEAKEGKPLSDKTIAGEYPDYQRKISATRDGLKVTFGKVRATWDLLTSGESEYQVHKSLPVQTEINGNRFTSKAHINGSTTLYTTYSHLLTAQEVSKEQMQIRDILARPAFYLTASQQRWEEYLKKGLTNPDATPEQTRVAVKAIETLNGNWRSPGGAVKFNTVTPSVTGRWFSGNQTWPWDTWKQAFAMAHFNPDIAKENIRAVFSWQIQPGDSVRPQDVGFVPDLIAWNLSPERGGDGGNWNERNTKPSLAAWSVMEVYNVTQDKTWVAEMYPKLVAYHDWWLRNRDHNGNGVPEYGATRDKAHNTESGEMLFTVKKDSLRLSCATSGIGFSIYSMGWYRQAPGKERELVASIAGNEDKDYVESVKGRFTISRDYAKNTLYLEMSGLKFEDTAMYYCAAGLRRGVSLTPYYWGQGTQVTVSSHHHHHHEPEA
# notes: Functionalized Nanobody derived from CA10309; also called MegaBody MbCA10309^YgjK; MbNbFIXa^cHopQ
# B16: CA16964 mCherry Nanobody trapper (including C-terminal 6xHis+EPEA tag) (VHH)
# VHH: QVQLVESGGGLVQAGGSLRLSCAASGRDFSFDGMGWFRQAPGKEREFVAAISWSGLRIGYSDSVKGRFTISRDNAETTVHLQMNSLKPEDTAVYYCATGSHATTKAQLYDYEYWGQGTQVTVSS
# modifications: biotinylated for BLI
# notes: also called Nb CA16964
# Tests used:
# [1] = target: T2, recombinant human coagulation factor IXa (human, UniProt P00740 134-191; P00740 227-461); experiment: BLI
# T2 construct: range 134-191;range 227-461; Fluorescently labelled with Dylight-647 for the NANEX runs; also called FIXa
# [2] = target: T3, GST (Glutathione S-transferase) (Schistosoma japonicum (Blood fluke), UniProt P08515 1-218 = GST); experiment: BLI
# Procedure: (§1) Streptavidin-coated Octet® biosensors were used to capture biotinylated Nanobodies (1 μg/mL). […] All assays were performed in Hepes 25 mM pH7.5, NaCl 150 mM supplemented with BSA 0.1% and Tween²⁰ 0.005% at room temperature.
# [3] = target: T3, GST (Glutathione S-transferase); experiment: BLI (OctetRed), biotinylated Nb on streptavidin sensor, GST 63-1667 nM
# Procedure: as §1
# [4] = target: T1, SMT3 (YDR510W), ubiquitin-like protein …; experiment: BLI
# Procedure: (§2) Streptavidin-coated Octet® biosensors were used to capture biotinylated Nanobodies (1 μg/mL). Binding and dissociation isotherms at several SMT3 concentrations (10 nM to 500 nM range) were analyzed on an OctetRed (molecular devices). All assays were performed in Hepes 25 mM pH7.5, NaCl 150 mM supplemented with BSA 0.1% and Tween²⁰ 0.005% at room temperature.
# [5] = target: T1, SMT3 (YDR510W), ubiquitin-like protein …; experiment: BLI (OctetRed), biotinylated Nb on streptavidin sensor, SMT3 10-500 nM
# Procedure: as §2
# mCherry [6] = experiment: BLI
# Procedure: as §1
# mCherry [7] = experiment: BLI; remark: listed apart in the source
# Procedure: as §1
# mCherry [8] = experiment: BLI (OctetRed), biotinylated Nb on streptavidin sensor, mCherry 8.23-222 nM
# Procedure: as §1
# mCherry [9] = experiment: as above; remark: listed apart in the source
# Procedure: as §1
# [10] = target: T4, FmIH_lectin_mCherry_his (CA17337); experiment: displacement of FmlH_lectin_mCherry_his from immobilised CA16964 (NANEX column) by 1 mg CA17302; A280 and SDS-PAGE [D00043 FIG. 39B]
# T4 construct: also called mCherry-fusion protein
# [11] = target: T4, FmIH_lectin_mCherry_his (CA17337); experiment: NANEX column: lysate with FmlH_lectin_mCherry_his on immobilised CA17341; A280/A585 and SDS-PAGE [D00045 FIG. 41B]
# GFP protein [12] = target: T5, GFP protein (Aequorea victoria (Water jellyfish) …, UniProt P42212 1-238 = GFP); experiment: BLI
# T5 construct: Purified GFP used as BLI analyte, in crystals and in NANEX; also called Green fluorescent protein
# Procedure: (§3) Streptavidin-coated Octet® biosensors were used to capture biotinylated Nanobodies (1 μg/mL). Binding and dissociation isotherms at several GFP concentrations (1 nM to 5 μM range) were analyzed on an OctetRed (molecular devices). All assays were performed in Hepes 25 mM pH7.5, NaCl 150 mM supplemented with BSA 0.1% and Tween²⁰ 0.005% at room temperature.
# GFP protein [13] = target: T5, GFP protein; experiment: comparison of affinities told with the NANEX result
# GFP protein [14] = target: T5, GFP protein; experiment: BLI (OctetRed), biotinylated Nb on streptavidin sensor, GFP as analyte
# Procedure: as §3
# GFP protein [15] = target: T5, GFP protein; experiment: BLI; remark: listed apart in the source
# Procedure: (§4) Streptavidin-coated Octet® biosensors were used to capture biotinylated Nanobodies (1 μg/mL). Binding and dissociation isotherms at several GFP concentrations (8 nM to 500 nM range) were analyzed on an OctetRed (molecular devices). All assays were performed in Hepes 25 mM pH7.5, NaCl 150 mM supplemented with BSA 0.1% and Tween²⁰ 0.005% at room temperature.
# GFP protein [16] = target: T5, GFP protein; experiment: BLI (OctetRed), biotinylated Nb on streptavidin sensor, GFP 8-500 nM
# Procedure: as §4
# [17] = target: T2, recombinant human coagulation factor IXa; experiment: tandem NANEX: displacement of factor IXa from immobilised CA10502 by 1 mL of 2.5 mg/mL (24 µM) MegaBody CA14208; A280/A650 and SDS-PAGE
# [18] = target: T4, FmIH_lectin_mCherry_his (CA17337); experiment: NANEX column: lysate with FmlH_lectin_mCherry_his on immobilised CA16964; A280 and SDS-PAGE [D00043 FIG. 39B]
# T2 sequence (P00740 134-191 limits assumed, form in doubt, chain 1 of 2): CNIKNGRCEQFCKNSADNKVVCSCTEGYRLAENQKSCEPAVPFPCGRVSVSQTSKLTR
# T2 sequence (P00740 227-461 limits assumed, form in doubt, chain 2 of 2): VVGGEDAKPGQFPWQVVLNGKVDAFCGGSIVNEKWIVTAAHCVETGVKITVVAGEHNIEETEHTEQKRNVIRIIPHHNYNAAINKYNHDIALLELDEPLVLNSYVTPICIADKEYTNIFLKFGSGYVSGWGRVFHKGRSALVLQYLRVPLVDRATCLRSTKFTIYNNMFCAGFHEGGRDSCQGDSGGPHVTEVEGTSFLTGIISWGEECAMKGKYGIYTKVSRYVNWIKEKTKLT
binder,measurement,setting,value
B1,Kd,[1],74 nM
same,koff,[1],0.004 s⁻¹
same,kon,[1],70000 M⁻¹ s⁻¹
B2,Half time ratio (relative to wt),[2],1 fold
same,KD ratio (relative to wt),[2],1 fold
same,Kd,[3],4.86 nM
same,koff,[3],0.00309 s⁻¹
same,kon,[3],720000 M⁻¹ s⁻¹
B3,Half time ratio (relative to wt CA16239),[2],84 fold
same,KD ratio (relative to wt CA16239),[2],136 fold
same,Kd,[3],659 nM
same,koff,[3],0.251 s⁻¹
same,kon,[3],512000 M⁻¹ s⁻¹
B4,Half time ratio (relative to wt),[4],1 fold
same,KD ratio (relative to wt),[4],1 fold
same,Kd,[5],6.67 nM
same,koff,[5],0.00212 s⁻¹
same,kon,[5],318000 M⁻¹ s⁻¹
B5,Half time ratio (relative to wt CA15839),[4],3.75 fold
same,KD ratio (relative to wt CA15839),[4],4.34 fold
same,Kd,[5],29 nM
same,koff,[5],0.00797 s⁻¹
same,kon,[5],387000 M⁻¹ s⁻¹
B6,Kd,[1],21 nM
same,koff,[1],0.00073 s⁻¹
same,kon,[1],62000 M⁻¹ s⁻¹
B7,Half time ratio (relative to CA17302),mCherry [6],1 fold
same,KD ratio (relative to CA17302),mCherry [6],1 fold
same,Half time ratio (relative to wt),mCherry [7],1 fold
same,KD ratio (relative to wt),mCherry [7],1 fold
same,Kd,mCherry [8],1.69 nM
same,koff,mCherry [8],0.00102 s⁻¹
same,kon,mCherry [8],619000 M⁻¹ s⁻¹
same,Kd,mCherry [9],1.69 nM
same,koff,mCherry [9],0.00102 s⁻¹
same,kon,mCherry [9],619000 M⁻¹ s⁻¹
same,binding result,[10],binds
B8,Half time ratio (relative to wt CA17302),mCherry [7],2.26 fold
same,KD ratio (relative to wt CA17302),mCherry [7],2.4 fold
same,Kd,mCherry [9],4.05 nM
same,koff,mCherry [9],0.00231 s⁻¹
same,kon,mCherry [9],601000 M⁻¹ s⁻¹
same,binding result,[11],binds
B9,Kd,[1],141 nM
same,koff,[1],0.0042 s⁻¹
same,kon,[1],34000 M⁻¹ s⁻¹
B10,Half-time ratio (relative to the wt Nb CA12760),GFP protein [12],9 fold
same,KD ratio (relative to the wt Nb CA12760),GFP protein [12],30 fold
same,"affinity, fold higher than the trapper CA15816",GFP protein [13],2 fold
same,Kd,GFP protein [14],1.5 nM
same,koff,GFP protein [14],0.00029 s⁻¹
B11,Half-time ratio (relative to the wt Nb CA12760),GFP protein [12],1400 fold
same,KD ratio (relative to the wt Nb CA12760),GFP protein [12],2000 fold
same,"affinity, fold lower than the trapper CA15816",GFP protein [13],~100 fold
same,Kd,GFP protein [14],111 nM
same,koff,GFP protein [14],0.0458 s⁻¹
B12,Half time ratio (relative to wt),GFP protein [15],1 fold
same,KD ratio (relative to wt),GFP protein [15],1 fold
same,Kd,GFP protein [16],6.15 nM
same,koff,GFP protein [16],0.00098 s⁻¹
same,kon,GFP protein [16],234000 M⁻¹ s⁻¹
B13,Half time ratio (relative to wt CA16047),GFP protein [15],1.78 fold
same,KD ratio (relative to wt CA16047),GFP protein [15],1.37 fold
same,Kd,GFP protein [16],8.53 nM
same,koff,GFP protein [16],0.00167 s⁻¹
same,kon,GFP protein [16],200000 M⁻¹ s⁻¹
B14,Kd,[1],46 nM
same,koff,[1],0.0035 s⁻¹
same,kon,[1],88000 M⁻¹ s⁻¹
B15,binding result,[17],binds
B16,Half time ratio (relative to CA17302),mCherry [6],4.27 fold
same,KD ratio (relative to CA17302),mCherry [6],3.86 fold
same,Kd,mCherry [8],6.53 nM
same,koff,mCherry [8],0.00436 s⁻¹
same,kon,mCherry [8],694000 M⁻¹ s⁻¹
same,binding result,[18],binds
